# B1: central domain of GASP-1: central portion of GASP-1 (AA 380 to 1073) that contains 19 GASP motif (protein)
# chain: MTKEEAKTKARARAKQEARSEEEALIGTWFWATDESSMADEASIESSLQVEDESIIGSWFWTEEEASMGTGASSKSRPRTDGERIGDSLFGAREKTSMKTGAEATSESILAADDEQVIIGSWFWAGEEVNQEAEEETIFGSWFWVIDAASVESGVGVSCESRTRSEEEEVIGPWFWSGEQVDIEAGIGEEARPGAEEETIFGSWFWAENQTYMDCRAETSCDTMQGAEEEEPIIGSWFWTRVEACVEGDVNSKSSLEDKEEAMIPCFGAKEEVSMKHGTGVRCRFMAGAEETNNKSCFWAEKEPCMYPAGGGSWKSRPEEEEDIVNSWFWSRKYTKPEAIIGSWLWATEESNIDGTGEKAKLLTEEETIINSWFWKEDEAISEATDREESRPEAEEGDIIGSWFWAGEEDRLEPAAETREEDRLAAEKEGIVGSWFGAREETIRREAGSCSKSSPKAEEEEVIIGSWFWEEEASPEAVAGVGFESKPGTEEEEITVGSWFWPEEEASIQAGSQAVEEMESETEEETIFGSWFWDGKEVSEEAGPCCVSKPEDDEEMIVESWFWSRDKAIKETGTVATCESKPENEEGAIVGSWFEAEDEVDNRTDNGSNCGSRTLADEDEAIVGSWFWAGDEAHFESNPSPVFRAICRSTCSVEQEPDPSRRPQSWEEVTVQFKPGPWGRVGFPSISPFRFPKE
# modifications: left off: GST, N-terminal, kept
# notes: central portion of GASP-1 (AA 380 to 1073) that contains 19 GASP motif
# Columns and labels:
# GST-fused ADRB1 C-tail = assay: GST-pull down, ADRB1 C-tail; assay type: binding; conditions: percent of full-length GASP-1 interaction; three independent experiments
# Method in brief: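 C-tails fused to GST were expressed in E. coli BL21 (1mM IPTG, 2 h, 37°C), bound to glutathione-Sepharose and incubated 1 h at 4°C with [35S]-methionine-labelled in vitro translated GASP proteins in Tris-HCl pH 7.4/150 mM NaCl/1% Triton X-100 buffer. Bound GASPs were quantified by SDS-PAGE and phosphorimaging.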
# GST-fused M1 C-tail = assay: GST-pull down, M1 C-tail; assay type: binding; conditions: percent of full-length GASP-1 interaction; three independent experiments
# Method in brief: (§1)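 Phosphorimager quantification of [35S]-labelled GASP retained on GST-fused receptor C-tails after SDS-PAGE. Binding: glutathione-bead-bound fusions plus in vitro translated GASP, 1 h at 4°C, pH 7.4 Tris/NaCl/EDTA/DTT buffer with 1% Triton X-100. Means of at least three independent experiments.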
# GST-fused DOR C-tail = assay: GST-pull down, DOR C-tail; assay type: binding; conditions: percent of full-length GASP-1 interaction; three independent experiments
# Method in brief: as §1
# GST-fused ADRB2 C-tail = assay: GST-pull down, ADRB2 C-tail; assay type: binding; conditions: central domain compared to full-length GASP-1
# Description: (§2) cDNAs encoding the cytoplasmic C-tail of 14 GPCRs and 2 one-transmembrane receptors were cloned into the pGEX-2T prokaryotic expression vector downstream the GST sequence. […]
# (§3) GST-fusion proteins were immobilized on glutathione-coupled Sepharose beads (GE Healthcare) for 1 h at 4°C and incubated with [^35S]-labelled in vitro translated GASP proteins or their truncated or mutated forms in ice-cold binding buffer containing: 20 mM Tris-HCl pH 7.4, 150 mM NaCl, 1 mM EDTA, 1 mM DTT, 10% glycerol and 1% Triton X-100. […] The supernatants were then analyzed by SDS-PAGE, the gels were stained with Coomassie blue to visualize GST-fusion proteins, dried and analyzed using a Phosphor-imager (Personal Molecular Imager FX, Biorad) to visualize [^35S]-labelled GASPs. Quantification was performed with the Quantity One software (Biorad). GST-pull down quantification data were analyzed using GraphPad Prism 4.03 (GraphPad Software). Quantifications presented are means of at least three independent experiments.
# GST-fused CNR2 C-tail = assay: GST-pull down, CNR2 C-tail; assay type: binding; conditions: central domain compared to full-length GASP-1
# Description: as §2, §3
# [1] = system: GFP-tagged ADRB1 in HEK293 cells; assay: Co-immunoprecipitation, ADRB1; assay type: cell-based; conditions: 48 h expression, anti-GFP immunoprecipitation
# Description: (§4) HEK293 cells stably expressing N-terminal GFP-tagged ADRB1, ADRB2, CALCR and M1 or MyrPalm-mYFP were transfected with pcDNA3.1 containing the sequence for a central domain of GASP-1 (AA 380 to 1073) using JetPEI reagent (polyplus transfection) according to the instructions from the manufacturer. After 48 h of expression, cells were washed twice with PBS and lysed in a buffer containing 10 mM Tris-HCl, pH 7.4, 150 mM NaCl, 25 mM KCl, 0.3% Triton X-100 and cOmplete protease inhibitors (Roche) for 1 h at 4°C under agitation. 500 µg of cleared lysates were incubated with 1 µg of a mouse monoclonal anti-GFP antibody (Invitrogen) overnight at 4°C, followed by an incubation with 40 µl of protein A-Sepharose beads for an additional 2 h at 4°C. Beads were then washed five times in lysis buffer and precipitates were resolved on an 8% gel by SDS–PAGE and electrotransferred to immobilon-P membranes (Millipore) in 50 mM Tris-boric acid for 1 h at 300 mA. Membranes were blocked with 5% non-fat powder milk in TBS-Tween (50 mM Tris-HCl pH 8, 150 mM NaCl, 0.4% Tween-20) for 1 h at room temperature. […] For immunodetection of GASP or GFP-tagged receptors directly from cell lysates, 10 µg of proteins were loaded on SDS gels and analyzed following the procedure described above. Finally, membranes were washed in TBS-Tween and detected by chemiluminescence (ECL prime, GE Healthcare). […]
# [2] = system: GFP-tagged ADRB2 in HEK293 cells; assay: Co-immunoprecipitation, ADRB2; assay type: cell-based; conditions: 48 h expression, anti-GFP immunoprecipitation
# Description: as §4
# [3] = system: GFP-tagged CALCR in HEK293 cells; assay: Co-immunoprecipitation, CALCR; assay type: cell-based; conditions: 48 h expression, anti-GFP immunoprecipitation
# Description: as §4
molecule,measurement,setting,value
B1,interaction with ADRB1 C-tail relative to full-length GASP-1,GST-fused ADRB1 C-tail,around 70%
same,interaction with M1 C-tail relative to full-length GASP-1,GST-fused M1 C-tail,around 70%
same,interaction with DOR C-tail relative to full-length GASP-1,GST-fused DOR C-tail,~30%
same,interaction with ADRB2 C-tail,GST-fused ADRB2 C-tail,mandatory and sufficient for this interaction
same,interaction with CNR2 C-tail,GST-fused CNR2 C-tail,mandatory and sufficient for this interaction
same,co-immunoprecipitation with ADRB1,[1],co-immunoprecipitated
same,co-immunoprecipitation with ADRB2,[2],co-immunoprecipitated
same,co-immunoprecipitation with CALCR,[3],co-immunoprecipitated
